For one assay, the target named is T1, Kapβ2(W373A) (UniProt Q92973-2 1-890, W373A).
T1 sequence (looked up): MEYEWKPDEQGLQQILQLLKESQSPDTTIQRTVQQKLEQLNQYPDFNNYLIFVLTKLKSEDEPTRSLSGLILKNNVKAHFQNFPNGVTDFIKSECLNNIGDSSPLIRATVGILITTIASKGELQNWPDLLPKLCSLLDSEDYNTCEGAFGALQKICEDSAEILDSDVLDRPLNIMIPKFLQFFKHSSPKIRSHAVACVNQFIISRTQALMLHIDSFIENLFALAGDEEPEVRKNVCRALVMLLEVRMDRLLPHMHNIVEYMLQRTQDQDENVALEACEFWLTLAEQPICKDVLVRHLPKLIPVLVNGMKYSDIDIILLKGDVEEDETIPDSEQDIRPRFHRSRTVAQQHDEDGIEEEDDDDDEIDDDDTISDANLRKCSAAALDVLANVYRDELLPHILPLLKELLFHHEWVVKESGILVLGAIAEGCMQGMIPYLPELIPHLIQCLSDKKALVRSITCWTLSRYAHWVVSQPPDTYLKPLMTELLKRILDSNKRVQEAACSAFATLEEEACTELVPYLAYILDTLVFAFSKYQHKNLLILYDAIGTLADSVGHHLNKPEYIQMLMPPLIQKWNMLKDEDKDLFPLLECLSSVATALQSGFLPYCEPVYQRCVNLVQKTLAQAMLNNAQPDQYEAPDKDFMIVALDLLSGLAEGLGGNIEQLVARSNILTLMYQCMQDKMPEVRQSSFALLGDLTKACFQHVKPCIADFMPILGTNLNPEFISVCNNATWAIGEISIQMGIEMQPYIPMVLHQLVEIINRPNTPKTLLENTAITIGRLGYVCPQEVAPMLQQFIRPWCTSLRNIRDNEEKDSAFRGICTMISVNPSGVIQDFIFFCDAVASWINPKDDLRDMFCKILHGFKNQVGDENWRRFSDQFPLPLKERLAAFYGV
Kind of assay: ITC.

The target of assay [1] is Karyopherin-β2 (full length, GST tag removed) (UniProt Q92973). The experiment in a line: ITC.
Assay [2] concerns the target T2, Karyopherin-β2 (full length, GST tag removed) (UniProt Q92973-2 1-890).
T2 sequence (looked up): T1 sequence (looked up) with A373W
Kind of assay: ITC.

The target in assay [3] is T2, Karyopherin-β2 (full length, GST tag …). Kind of assay: SEC.

Substitutions are numbered along the chain they refer to. Names may count otherwise.

Chain of Karyopherin-β2 (full length, GST tag removed) (UniProt Q92973) (Q92973 9-898): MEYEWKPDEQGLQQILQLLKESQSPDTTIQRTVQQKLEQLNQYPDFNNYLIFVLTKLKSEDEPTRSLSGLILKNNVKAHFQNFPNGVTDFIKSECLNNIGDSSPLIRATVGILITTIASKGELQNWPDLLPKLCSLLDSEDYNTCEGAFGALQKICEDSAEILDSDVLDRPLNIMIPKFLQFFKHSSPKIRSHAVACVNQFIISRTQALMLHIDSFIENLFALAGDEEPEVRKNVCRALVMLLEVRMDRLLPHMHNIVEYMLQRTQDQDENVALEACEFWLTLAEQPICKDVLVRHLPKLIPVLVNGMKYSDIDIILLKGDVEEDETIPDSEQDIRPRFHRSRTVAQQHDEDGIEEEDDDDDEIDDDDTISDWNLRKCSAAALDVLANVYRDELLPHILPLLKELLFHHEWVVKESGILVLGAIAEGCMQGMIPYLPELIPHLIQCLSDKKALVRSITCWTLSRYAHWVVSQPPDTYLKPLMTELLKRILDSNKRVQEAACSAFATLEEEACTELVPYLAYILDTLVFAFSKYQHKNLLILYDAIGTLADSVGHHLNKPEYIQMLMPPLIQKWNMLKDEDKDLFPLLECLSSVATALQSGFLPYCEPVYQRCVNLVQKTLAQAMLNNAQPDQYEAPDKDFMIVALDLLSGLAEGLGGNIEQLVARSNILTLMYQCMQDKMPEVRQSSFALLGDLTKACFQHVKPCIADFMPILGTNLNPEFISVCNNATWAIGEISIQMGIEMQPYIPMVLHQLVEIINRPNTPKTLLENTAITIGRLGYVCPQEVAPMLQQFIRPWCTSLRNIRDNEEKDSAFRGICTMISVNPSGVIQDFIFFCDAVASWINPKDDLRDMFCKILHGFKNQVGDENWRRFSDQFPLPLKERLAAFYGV

Take HNRNPM PY-NLS (domain or fragment): the Kd with Kapβ2(W373A) amounted to 0.009 µM.
Take “MBP-HNRNPH2 R212A (ITC) (from UniProt P55795 103-225) (domain or fragment)”: the equilibrium dissociation constant (Kd) in assay [1] amounted to 3.2 µM.

B1: MBP-HNRNPH2(190-225) (domain or fragment, UniProt P55795 190-225, looked up)
chain: EVRTHYDPPRKLMAMQRPGPYDRPGAGRGYNSIGRG
As to B1, the Kd in assay [2] is 40 nM.

B2: MBP-HNRNPH2(103-225) (domain or fragment, UniProt P55795 103-225, looked up)
chain: NSPDTANDGFVRLRGLPFGCSKEEIVQFFSGLEIVPNGMTLPVDFQGRSTGEAFVQFASQEIAEKALKKHKERIGHRYIEIFKSSRAEVRTHYDPPRKLMAMQRPGPYDRPGAGRGYNSIGRG
Consider B2, for which the equilibrium dissociation constant (Kd) came out at 50 nM in assay [2] and 6.1 µM with Kapβ2(W373A).

B3: HNRNPH2(103-225) (as used for SEC and cryo-EM) (domain or fragment, UniProt P55795 103-225, looked up)
chain: B2 chain
modifications: mild crosslinking with 0.025% glutaraldehyde in the cryo-EM sample
As to B3, the binding result in assay [3] was “binds”.

B4: MBP-HNRNPH2(103-225) P209L (domain or fragment, UniProt P55795 103-225, looked up)
chain: B2 chain with P107L
Turning to B4, the “fold decrease of affinity against wild type” value in assay [2] was roughly 200 fold.
